In PMC7595197 one finds stoichiometry N data, which are given here for one substance.

As usually defined, the stoichiometry N is the number of molecules, sites or subunits per partner or assembly.

In the experiment the target is AtaT (G108D) (enterohemorrhagic E. coli O157:H7). Description: crystal structure.

As to AtaT (G108D) (enzyme), the stoichiometry N stood at 2.
